Source: paper PMC8920847

Target: His-tagged recombinant AjBNIP3 (rAjBNIP3) (Apostichopus japonicus)
Assay: MST

Kd: 2820 nM
Substance: Recombinant His-AjLC3 (natural protein)
